These results are taken from the supplement of paper PMC10567573.

Sequences and labels used below:
B1: GLTSCR2 (parent)
chain: FQRRNMIEPRERAKFKRKYKVKLV
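Note: lentivirally expressed fusions sorted by FACS into six bins by GFP to DsRed ratio, PSI derived from sequencing read proportions per bin multiplied by bin number.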

The data set covers variants of B1. The data set can be described thus: protein stability index of a GFP-peptide fusion (GPS, HEK-293T) (PSI 1-6); higher = more stable. As to conditions: c terminus: a fixed tail appended.
Take FQRENMIEPRERAKFKRKYKVKLV: the protein stability index is 2.

Consider FQRINMIEPRERAKFKRKYKVKLV, for which the protein stability index came out at 2.14.

In the case of FQRTNMIEPRERAKFKRKYKVKLV, the protein stability index turned out to be 2.6.

Take FQRNNMIEPRERAKFKRKYKVKLV: the protein stability index was determined as 2.7.

As for FQRGNMIEPRERAKFKRKYKVKLV, the protein stability index is 1.9.

Regarding FQRPNMIEPRERAKFKRKYKVKLV, the protein stability index is 1.73.

Regarding FQRLNMIEPRERAKFKRKYKVKLV, the protein stability index amounted to 2.51.

FQRQNMIEPRERAKFKRKYKVKLV: the protein stability index amounted to 2.85.

With FQRWNMIEPRERAKFKRKYKVKLV, the protein stability index was 1.96.

As to FQRHNMIEPRERAKFKRKYKVKLV, the protein stability index is 2.13.

Take FQRVNMIEPRERAKFKRKYKVKLV: the protein stability index came to 3.02.

Take FQRKNMIEPRERAKFKRKYKVKLV: the protein stability index turned out to be 1.95.

Turning to FQRYNMIEPRERAKFKRKYKVKLV, the protein stability index was 2.42.

Take FQRMNMIEPRERAKFKRKYKVKLV: the protein stability index is 1.86.

As to FQRSNMIEPRERAKFKRKYKVKLV, the protein stability index stood at 2.35.

Regarding FQRRNMEEPRERAKFKRKYKVKLV, the protein stability index worked out at 2.22.

As for FQRRNMVEPRERAKFKRKYKVKLV, the protein stability index worked out at 2.24.

Turning to FQRRNMCEPRERAKFKRKYKVKLV, the protein stability index was 2.78.

In the case of FQRRNMREPRERAKFKRKYKVKLV, the protein stability index stood at 2.46.

In the case of FQRRNMQEPRERAKFKRKYKVKLV, the protein stability index amounted to 2.24.

Regarding FQRRNMPEPRERAKFKRKYKVKLV, the protein stability index was found to be 2.25.

Take FQRRNMKEPRERAKFKRKYKVKLV: the protein stability index came out at 2.1.

Turning to FQRRNMWEPRERAKFKRKYKVKLV, the protein stability index came out at 1.9.

With FQRRNMTEPRERAKFKRKYKVKLV, the protein stability index was 2.31.

Take FQRRNMAEPRERAKFKRKYKVKLV: the protein stability index turned out to be 2.15.

Turning to FQRRNMLEPRERAKFKRKYKVKLV, the protein stability index was found to be 1.99.

Take FQRRNMFEPRERAKFKRKYKVKLV: the protein stability index stood at 2.2.

As to FQRRNMSEPRERAKFKRKYKVKLV, the protein stability index turned out to be 3.04.

Consider FQRRNMDEPRERAKFKRKYKVKLV, for which the protein stability index worked out at 3.27.

In the case of FQRRNMYEPRERAKFKRKYKVKLV, the protein stability index is 1.92.

As to FQRRNMHEPRERAKFKRKYKVKLV, the protein stability index amounted to 1.87.

FQRRNMNEPRERAKFKRKYKVKLV: the protein stability index amounted to 2.64.

With FQRRNMGEPRERAKFKRKYKVKLV, the protein stability index was found to be 2.35.

For the variant FQRRNMMEPRERAKFKRKYKVKLV, the protein stability index was 2.67.

On to FQRRNMIEPREVAKFKRKYKVKLV, for which the protein stability index was 1.5.

Consider FQRRNMIEPREGAKFKRKYKVKLV, for which the protein stability index is 2.6.

In the case of FQRRNMIEPREAAKFKRKYKVKLV, the protein stability index turned out to be 1.87.

With FQRRNMIEPRETAKFKRKYKVKLV, the protein stability index came to 2.15.

As for FQRRNMIEPREHAKFKRKYKVKLV, the protein stability index came out at 2.19.

For the variant FQRRNMIEPREMAKFKRKYKVKLV, the protein stability index came out at 2.69.

On to FQRRNMIEPRENAKFKRKYKVKLV, for which the protein stability index was 2.45.

With FQRRNMIEPREEAKFKRKYKVKLV, the protein stability index was determined as 2.5.

In the case of FQRRNMIEPREYAKFKRKYKVKLV, the protein stability index was determined as 1.79.

With FQRRNMIEPRECAKFKRKYKVKLV, the protein stability index turned out to be 2.

With FQRRNMIEPRESAKFKRKYKVKLV, the protein stability index is 1.84.

Take FQRRNMIEPREKAKFKRKYKVKLV: the protein stability index is 2.41.

With FQRRNMIEPREDAKFKRKYKVKLV, the protein stability index was found to be 2.31.

Regarding FQRRNMIEPREIAKFKRKYKVKLV, the protein stability index was 3.04.

Consider FQRRNMIEPREPAKFKRKYKVKLV, for which the protein stability index is 1.72.

FQRRNMIEPRELAKFKRKYKVKLV: the protein stability index was 1.79.

Regarding FQRRNMIEPREQAKFKRKYKVKLV, the protein stability index worked out at 2.43.

Take FQRRNMIEPREFAKFKRKYKVKLV: the protein stability index is 1.47.

In the case of FQRRNMIEPRERTKFKRKYKVKLV, the protein stability index amounted to 2.03.

Take FQRRNMIEPRERNKFKRKYKVKLV: the protein stability index stood at 3.21.

On to FQRRNMIEPRERLKFKRKYKVKLV, for which the protein stability index stood at 2.29.

With FQRRNMIEPRERHKFKRKYKVKLV, the protein stability index amounted to 2.74.

For the variant FQRRNMIEPRERIKFKRKYKVKLV, the protein stability index was 2.13.

On to FQRRNMIEPRERRKFKRKYKVKLV, for which the protein stability index is 2.72.

For the variant FQRRNMIEPRERSKFKRKYKVKLV, the protein stability index came out at 2.32.

With FQRRNMIEPRERVKFKRKYKVKLV, the protein stability index came to 3.38.

For FQRRNMIEPRERWKFKRKYKVKLV, the protein stability index worked out at 1.61.

On to FQRRNMIEPRERGKFKRKYKVKLV, for which the protein stability index was determined as 2.08.

As for FQRRNMIEPRERKKFKRKYKVKLV, the protein stability index turned out to be 2.37.

Take FQRRNMIEPRERFKFKRKYKVKLV: the protein stability index worked out at 1.64.

Turning to FQRRNMIEPRERCKFKRKYKVKLV, the protein stability index stood at 1.98.

For the variant FQRRNMIEPRERMKFKRKYKVKLV, the protein stability index worked out at 2.08.

In the case of FQRRNMIEPREREKFKRKYKVKLV, the protein stability index was found to be 2.56.

In the case of FQRRNMIEPRERQKFKRKYKVKLV, the protein stability index amounted to 2.35.

In the case of FQRRNMIEPRERPKFKRKYKVKLV, the protein stability index was 2.02.

For the variant FQRRNMIEPRERDKFKRKYKVKLV, the protein stability index came out at 1.7.

As for FQRRNMIEPRERYKFKRKYKVKLV, the protein stability index was found to be 2.68.

As to FQRRNMIEARERAKFKRKYKVKLV, the protein stability index came to 3.52.

As for FQRRNMIEHRERAKFKRKYKVKLV, the protein stability index came out at 2.47.

For the variant FQRRNMIEFRERAKFKRKYKVKLV, the protein stability index stood at 2.4.

Turning to FQRRNMIERRERAKFKRKYKVKLV, the protein stability index is 2.5.

As to FQRRNMIEQRERAKFKRKYKVKLV, the protein stability index is 2.38.

As for FQRRNMIEDRERAKFKRKYKVKLV, the protein stability index was found to be 2.15.

FQRRNMIECRERAKFKRKYKVKLV: the protein stability index was 2.14.

Regarding FQRRNMIESRERAKFKRKYKVKLV, the protein stability index was 2.33.

As for FQRRNMIEYRERAKFKRKYKVKLV, the protein stability index turned out to be 1.67.

For FQRRNMIEGRERAKFKRKYKVKLV, the protein stability index came out at 1.71.

For FQRRNMIELRERAKFKRKYKVKLV, the protein stability index is 1.78.

As for FQRRNMIEKRERAKFKRKYKVKLV, the protein stability index turned out to be 2.52.

Regarding FQRRNMIENRERAKFKRKYKVKLV, the protein stability index is 2.34.

In the case of FQRRNMIEVRERAKFKRKYKVKLV, the protein stability index was determined as 2.19.

With FQRRNMIEWRERAKFKRKYKVKLV, the protein stability index worked out at 2.01.

As to FQRRNMIEIRERAKFKRKYKVKLV, the protein stability index is 2.4.

Consider FQRRNMIETRERAKFKRKYKVKLV, for which the protein stability index turned out to be 1.99.

As to FQRRNMIEMRERAKFKRKYKVKLV, the protein stability index was determined as 2.06.

For the variant FQRRNMIEPVERAKFKRKYKVKLV, the protein stability index came out at 1.58.

As to FQRRNMIEPQERAKFKRKYKVKLV, the protein stability index stood at 1.53.

As for FQRRNMIEPFERAKFKRKYKVKLV, the protein stability index came to 2.

As to FQRRNMIEPKERAKFKRKYKVKLV, the protein stability index is 2.28.

For FQRRNMIEPSERAKFKRKYKVKLV, the protein stability index is 2.13.
